{"source": "patent US20160177324A1", "about": "“NOVEL PROTEIN AND GENE RELATED TO FLAVONOID O-METHYLTRANSFERASE (FOMT) AND THEIR USES THEREFORE” (INSTITUTE OF BOTANY, THE CHINESE ACADEMY OF SCIENCES, priority 2013, published 2016)", "molecules": {"B1": {"name": "PtFOMT: similar O-methyltransferase cloned from Paeonia tenuifolia, SEQ ID NO: 4; differs from PsFOMT at positions 13, 85, 87, 205 (protein, listed as Paeonia tenuifolia)", "chain": "MAESDRKGILKSGALLKYILETSVYPREHEQLKQLRQATVDKYKYWSVMNVPADEGQFLSMLLKIMNAKKTIEVGVFTGYSLLTTARALPTDAKITAIDPDGEAYETGLPFIKKAGVEHKINYIQADAMSVLDDLVTNGKEEGSFDFAFVDADKENYAKYHEPLMKLVKIGGIIGYDNTLWFGSVALSDGDEMKEFQEKGRRIFTEFNTFLAADPRIELAHISIGDGLALCRRLY"}, "B2": {"name": "PtFOMT-R87L: site-directed mutant of PtFOMT, R87L (protein)", "chain": "MAESDRKGILKSGALLKYILETSVYPREHEQLKQLRQATVDKYKYWSVMNVPADEGQFLSMLLKIMNAKKTIEVGVFTGYSLLTTALALPTDAKITAIDPDGEAYETGLPFIKKAGVEHKINYIQADAMSVLDDLVTNGKEEGSFDFAFVDADKENYAKYHEPLMKLVKIGGIIGYDNTLWFGSVALSDGDEMKEFQEKGRRIFTEFNTFLAADPRIELAHISIGDGLALCRRLY"}, "B3": {"name": "PtFOMT-G13E: site-directed mutant of PtFOMT, G13E (protein)", "chain": "MAESDRKGILKSEALLKYILETSVYPREHEQLKQLRQATVDKYKYWSVMNVPADEGQFLSMLLKIMNAKKTIEVGVFTGYSLLTTARALPTDAKITAIDPDGEAYETGLPFIKKAGVEHKINYIQADAMSVLDDLVTNGKEEGSFDFAFVDADKENYAKYHEPLMKLVKIGGIIGYDNTLWFGSVALSDGDEMKEFQEKGRRIFTEFNTFLAADPRIELAHISIGDGLALCRRLY"}, "B4": {"name": "PtFOMT-T85A: site-directed mutant of PtFOMT, T85A (protein)", "chain": "MAESDRKGILKSGALLKYILETSVYPREHEQLKQLRQATVDKYKYWSVMNVPADEGQFLSMLLKIMNAKKTIEVGVFTGYSLLTAARALPTDAKITAIDPDGEAYETGLPFIKKAGVEHKINYIQADAMSVLDDLVTNGKEEGSFDFAFVDADKENYAKYHEPLMKLVKIGGIIGYDNTLWFGSVALSDGDEMKEFQEKGRRIFTEFNTFLAADPRIELAHISIGDGLALCRRLY"}, "B5": {"name": "PtFOMT-T205R: site-directed mutant of PtFOMT, T205R (protein)", "chain": "MAESDRKGILKSGALLKYILETSVYPREHEQLKQLRQATVDKYKYWSVMNVPADEGQFLSMLLKIMNAKKTIEVGVFTGYSLLTTARALPTDAKITAIDPDGEAYETGLPFIKKAGVEHKINYIQADAMSVLDDLVTNGKEEGSFDFAFVDADKENYAKYHEPLMKLVKIGGIIGYDNTLWFGSVALSDGDEMKEFQEKGRRIFREFNTFLAADPRIELAHISIGDGLALCRRLY"}}, "key": {"[1]": {"assay": "Comparison of activities among recombinant polypeptides with site mutagenesis", "assay_type": "biochemical", "settings": "for Activity (%), portion of recombinant protein activity compared with PsFOMT: Cy3G5G as substrate", "experimental": "The reaction system was according to Hugueney et al. with some modification (Hugueney, P., et al., A novel cation-dependent O-methyltransferase involved in anthocyanin methylation in grapevine. Plant Physiology, 2009. 150(4): p. 2057-2070.). Purified recombinant FOMT (2 μg) was assayed in a final volume of 200 μL containing 200 μM SAM, 1 mM MgCl2, 14 mM β-mercaptoethanol, 100 mM Tris, pH 7.5, and 20 μM flavonoid substrates. Incubation was performed at 35° C. and stopped with 200 μL methanol containing 2% formic acid. For enzyme kinetic studies, purified FOMT was incubated based on the above condition with the exception that a range of substrate concentrations from 5 to 200 μM were used for Km determination. Reaction product was analyzed by a Dionex HPLC system (Sunnyvale, Calif.), equipped with a P680 HPLC pump, an UltiMate 3000 autosampler, a TCC-100 thermostated column compartment and a Dionex PDA100 photodiode array detector. The analytical column was C18 column of ODS 80Ts QA (150 mm×4.6 mm, 5 μm i.d., Tosoh, Tokyo) protected with a C18 guard cartridge (Shanghai ANPEL Scientific Instrument, Shanghai). The following solvent and gradient were used: A, 10% aqueous formic acid; B, methanol; constant gradient from 10 to 36% B within 15 min and back to 10% B in 3 min; the flow rate was 0.8 mL min^−1; Column temperature was maintained at 35° C.; 20 μL of analyte was injected. Chromatograms were obtained at 525 nm for anthocyanins and 350 nm for other flavonoids, and photodiode array spectra were recorded from 200 to 800 nm. Km and Vmax values were calculated from Lineweaver-Burk plots.\nTo validate the key amino acid responsible for the activity, site-directed mutagenesis was carried out using the PCR method and Fast Mutagenesis System (TransGen), and primer sequences used are given in Table 1. Four constructs were built following the template sequence of PtFOMT, named as PtFOMT-G13E, PtFOMT-T85A, PtFOMT-R87L, and PtFOMT-T205R. The corresponding recombinant proteins were purified and the catalytic activities were examined. […] The other mutants have no significant improved activity compared with PtFOMT. The leucine at 87-position is a vital residue for the methyltransferase activity."}, "[2]": {"test_system": "Nicotiana tabacum cv.Nc89", "assay": "Flavonoid O-methyltransferase activity in transgenic tobacco", "assay_type": "in vivo", "text": "The full length genes were introduced with a BamHl site and an XhoI site on 5′- and 3′-end by PCR with primers SEQ No. 5 & 6. The double digested fragment of interest and eukaryotic expression vector pBI121 with BamHl site and an XhoI were ligated. Then the appropriate constructs were introduced into Agrobacterium strain EHA105 by electroporation.\nLeaf of Nicotiana tabacum cv.Nc89 plant (Donated by Professor Silan Dai, Beijing Forestry University) was disinfected by 75% ethanol for 30 s, followed by 2% sodium hypochlorite for 3 minutes, and then washed with sterile water for three times. The leaf was cut into squares (25 mm^2) A single colony of Agrobacterium strain EHA105 with pBI121-FOMT construct was used to inoculate with 2 mL of YEB medium (per liter: 5 g of beef extract, 1 g of yeast extract, 5 g of sucrose, and 0.5 g of MgSO4.7H2O), supplemented with 50 mg mL^−1 kanamycin and 25 mg mL^−1 Rifampicin. The culture was incubated at 28° C. until OD600 0.6-0.8, and the bacteria were pelleted by centrifugation at 5000 rpm for 5 minutes. The cells were washed by MS liquid medium and resuspended pellets with appropriate volume of MS liquid. The tobacco leaf squares were dipped into the bacteria solution for 8 minutes and cultivated on MS media containing 2.0 mg L^−1 6-benzylaminopurine (6-BA), 0.2 mg L^−1 1-naphthylacetic acid (NAA), and 500 mg L^−1 ceflomine. The explants were transferred to fresh selected medium after two weeks. When the regenerating plantlets grow to 2 cm, move them to MS media containing 0.2 mg L^−1 NAA to induce root. After four weeks, the transgenic tobacco plantlets were transferred to pots and kept in the greenhouse till flowering. The positive transgenic lines were selected by PCR, and transgenic plantlets with empty plasmid were used as control. The anthocyanins in transgenic petals were detected with an HPLC system.\nAppropriate amount of sample (petal, fruits) was powdered with mortars and pestles and extracted for the first time with 2 mL 2% (v/v) formic acid methanol solution shaken in a QL-861 vortex (Kylinbell Lab Instruments, Jiangsu, China), sonicated in KQ-500DE ultrasonic cleaner (Ultrasonic instruments, Jiangsu Kunshan, China) at 20° C. for 20 min, centrifuged in SIGMA 3K30 (SIGMA centrifugers, Germany) (12000 rpm, 10 min), and the supernatant was collected. Additional 2 mL and 1 mL extraction solution was supplemented to the residue, and repeated aforesaid operation for the second and third times. All extract was pooled and filtrated through 0.22 μm reinforced nylon membrane filters (Shanghai ANPEL, Shanghai, China) before the HPLC-DAD and HPLC-ESI-MS^n analyses. Three replicates were performed for each sample. […]\nHPLC-ESI-MS^n analysis was carried with an Agilent-1100 HPLC system equipped with a UV detector coupled to a LC-MSD Trap VL ion-trap mass spectrometer via an ESI source (Agilent Technologies, Palo Alto, Calif.). […] The MS conditions were listed as follow: negative-ion (NI) mode; capillary voltage of 3.5 kV; a nebulization pressure of 241.3 kPa; and a gas (N2) temperature of 350° C. with flow rate of 6.0 L min^−1 Capillary offset voltage was 77.2 V. MS spectra were recorded over the range from m/z 50-1000."}}, "data": [{"molecule": "B1", "values": [{"measurement": "Activity (%), portion of recombinant protein activity compared with PsFOMT", "setting": "[1]; Incubation 5 min", "result": 0, "unit": "%"}, {"measurement": "Activity (%), portion of recombinant protein activity compared with PsFOMT", "setting": "[1]; Incubation 30 min", "result": 4.2, "unit": "%"}, {"measurement": "flower color compared with control lines", "setting": "[2]; transgenic tobacco flowers", "result": "no obvious difference"}, {"measurement": "methyltransferase function in tobacco petal (new anthocyanin Pn3R detected)", "setting": "[2]; transgenic tobacco petals vs empty vector", "result": "performed as a methyltransferase"}]}, {"molecule": "B2", "values": [{"measurement": "Activity (%), portion of recombinant protein activity compared with PsFOMT", "setting": "[1]; Incubation 5 min", "result": 100.7, "unit": "%"}, {"measurement": "Activity (%), portion of recombinant protein activity compared with PsFOMT", "setting": "[1]; Incubation 30 min", "result": 104.5, "unit": "%"}, {"measurement": "catalytic activity of site-directed mutants", "setting": "[1]; recombinant purified proteins", "result": "regain the activity equal to PsFOMT"}]}, {"molecule": "B3", "values": [{"measurement": "Activity (%), portion of recombinant protein activity compared with PsFOMT", "setting": "[1]; Incubation 5 min", "result": 0, "unit": "%"}, {"measurement": "Activity (%), portion of recombinant protein activity compared with PsFOMT", "setting": "[1]; Incubation 30 min", "result": 18.5, "unit": "%"}]}, {"molecule": "B4", "values": [{"measurement": "Activity (%), portion of recombinant protein activity compared with PsFOMT", "setting": "[1]; Incubation 5 min", "result": 0, "unit": "%"}, {"measurement": "Activity (%), portion of recombinant protein activity compared with PsFOMT", "setting": "[1]; Incubation 30 min", "result": 14.0, "unit": "%"}]}, {"molecule": "B5", "values": [{"measurement": "Activity (%), portion of recombinant protein activity compared with PsFOMT", "setting": "[1]; Incubation 5 min", "result": 0, "unit": "%"}, {"measurement": "Activity (%), portion of recombinant protein activity compared with PsFOMT", "setting": "[1]; Incubation 30 min", "result": 38.1, "unit": "%"}]}]}
